{
  "source": "patent US5593867",
  "about": "“Fluorerscence polarization detection of nucleic acid amplication” (Becton, Dickinson and Company)",
  "binders": {"B1": {"name": "SEQ7/SEQ9 duplex lacking EcoRI site (dsDNA)", "DNA 1": "ATCCGTATGGTGGATAACGTCTTTCA", "DNA 2": "TGAAAGACGTTATCCACCATACGGAT"}},
  "key": {"EcoRI": {"target": "EcoRI (UniProt P00642 P00642:2-277)", "assay": "FP; no enhancement of FP change without recognition site; EDTA buffer, 37 C", "conditions": "tags: New England BioLabs; chain copies: 2"}, "EcoRI (Gln 111)": {"target": "EcoRI (Gln 111) (UniProt P00642 P00642:2-277, Gln111 (cleavage-deficient; parent residue not stated))", "assay": "FP; no enhancement of FP change without recognition site; EDTA buffer, 37 C", "conditions": "chain copies: 2"}},
  "data": [
    {"binder": "B1", "values": [
      {"measurement": "binding result", "setting": "EcoRI", "result": "no binding"},
      {"measurement": "binding result", "setting": "EcoRI (Gln 111)", "result": "no binding"}
    ]}
  ]
}
